For assay [1], the target named is SARS-CoV-2 spike receptor binding domain K417T (SARS-CoV-2) (UniProt P0DTC2). In words: BLI, RBD on AR2G biosensor, mAb as analyte. On the technique in general: Biolayer interferometry detects binding as a change in optical thickness at a sensor tip.
In assay [2] the target is spike protein of SARS-CoV-2 strain B.1.351 (SARS-CoV-2) (UniProt P0DTC2). The experiment in a line: cell-based or functional assay.
The target in assay [3] is SARS-CoV-2 receptor binding domain with N501Y (SARS-CoV-2) (UniProt P0DTC2). The experiment in a line: BLI, RBD immobilised on AR2G biosensor, 1:1 fit.
The target of assay [4] is SARS-CoV-2 spike protein on authentic virus, strain B.1.1.7 (SARS-CoV-2) (UniProt P0DTC2). The experiment in a line: cell-based or functional assay.
The target of assay [5] is SARS-CoV-2 spike protein on authentic virus, strain SARS-CoV-2/human/AUS/VIC01/2020 (Victoria) (SARS-CoV-2) (UniProt P0DTC2). The experiment in a line: cell-based or functional assay.

As usually defined, the Kd is the constant that tells how readily two partners part at equilibrium. Read a low Kd as higher affinity. Consider AZD1061 (antibody), for which the Kd in assay [1] amounted to 8 nM. In assay [2], the IC50 (FRNT, live virus neutralisation) came to 0.014 µg/mL.

Substance “AZD1061 as tested by BLI (Fab by the footnote of Table 12)” displayed a Kd in assay [3] of 1.41 nM.

Consider “AZD7442 (a combination of AZD1061 and AZD8895)”, for which, in assay [4], the B.1.1.7/Victoria Ratio of IC50 came to 0.77 and the IC50 (ug/ml), FRNT is 0.007 µg/mL. For the same substance, the IC50 (ug/ml), FRNT in assay [5] came out at 0.009 µg/mL.

For AZD8895 (antibody), the IC50 (FRNT, live virus neutralisation) in assay [2] was determined as 0.046 µg/mL.

“AZD8895 as tested by BLI (Fab by the footnote of Table 12)” gave a dissociation constant Kd in assay [3] of 2.44 nM.

REGN10933 (antibody) had an IC50 (FRNT, live virus neutralisation) in assay [2] of 3.28 µg/mL.

“REGN10933 as tested by BLI (Fab by the footnote of Table 12)” displayed a Kd in assay [3] of 2.75 nM. That is a single-digit nanomolar value.

In assay [2], REGN10987 (antibody) returned an IC50 (FRNT, live virus neutralisation) of 0.007 µg/mL.

The substance “REGN10987 as tested by BLI (Fab by the footnote of Table 12)” showed a dissociation constant (Kd) in assay [3] of 3.09 nM.
